# B1: His6-Plk4 PB1-PB2 (domain or fragment, D. melanogaster, UniProt O97143 382-602, looked up)
# chain: DRISVPPLNTKRLLPTRYKTKNAIMSILRNGEVVLEFLKFRPTYNEDRINDICRISDDGQRIIIYQPDPGRGLPVREQPPDLQIPSGDCVYNYDNLPSKHWKKYIYGARFVGLVKSKTPKVTYFSTLGKCQLMETMTDFEIRFYSGAKLLKTPSEGLKVYDRNGMLLSDYSCSESRSLIEHGNECFTHCVNISNALEVAQTKDNSCFPVTIGRRPITDVQP
# Target: the molecule itself
# Experiment: SEC-MALS
protein,measurement,value
B1,stoichiometry N,2

# Source: article PMC3496063 (Structure (London, England : 1993), 2012)
